Results published in paper PMC3886910 (PLoS Neglected Tropical Diseases, 2014).
Read-outs that look alike come from different tables or passages of the source.

Assays:
[1] = target: SjCP1084, recombinant (Schistosoma japonicum); assay: SDS-PAGE and western blot (oligomer bands)
[2] = target: SjCP1531, recombinant (Schistosoma japonicum); assay: SDS-PAGE and western blot (oligomer bands)
[3] = target: SjCP3842, recombinant (Schistosoma japonicum); assay: SEC
[4] = target: SjCP3842, recombinant (Schistosoma japonicum); assay: SDS-PAGE and western blot (oligomer bands)
[5] = target: native SjCP3842 (Schistosoma japonicum (endogenous in egg and adult worm extracts)); assay: SDS-PAGE and immunoblot (oligomer bands)
[6] = target: native SjCP3842 (Schistosoma japonicum (endogenous in egg and adult worm extracts)); assay: SDS-PAGE and immunoblot (oligomer bands); remark: listed apart in the source
[7] = target: T1, SjCP3842 (Schistosoma japonicum, UniProt Q6PYV4); assay: UV-visible differential spectral titration (Soret […] nm); also hemin-agarose pulldown and heme peroxidase binding assay
T1 construct: gene CP3842

[8] = target: native SjCP1531 (Schistosoma japonicum (endogenous in egg and adult worm extracts)); assay: SDS-PAGE and immunoblot (oligomer bands)
[9] = target: native SjCP1084 (Schistosoma japonicum (endogenous in egg and adult worm extracts)); assay: SDS-PAGE and immunoblot (oligomer bands)

Compound: SjCP1084, recombinant (natural protein)
- stoichiometry N [1]: 4

Compound: SjCP1531, recombinant (natural protein)
- stoichiometry N [2]: 4

Compound: SjCP3842, recombinant (natural protein)
- stoichiometry N [3]: 4
- stoichiometry N [4]: 4

Compound: native SjCP3842 (natural protein)
- stoichiometry N [5]: 4
- stoichiometry N [6]: 2

Compound: C=CC1=C(C)C2=Cc3c(C=C)c(C)c4[n]3[Fe][n]3c(c(C)c(CCC(=O)O)c3=CC3=NC(=C4)C(C)=C3CCC(=O)O)=CC1=N2 [heme]
- Kd [7]: 1.61 µM

Compound: native SjCP1531 (natural protein)
- stoichiometry N [8]: 4

Compound: native SjCP1084 (natural protein)
- stoichiometry N [9]: 4
